Experimental data published in patent publication US20060270591A1, “Androgen receptor coregulators” (priority 2002, published 2006).

Legend:
[1] = target: T1, GR (Homo sapiens, UniProt P04150); experiment: GR transactivation with ARA70 in DU145 cells (Example 3); format: cell-based; design: expressed in transfected cells; host or cells: DU145
T1 sequence (P04150 1-777): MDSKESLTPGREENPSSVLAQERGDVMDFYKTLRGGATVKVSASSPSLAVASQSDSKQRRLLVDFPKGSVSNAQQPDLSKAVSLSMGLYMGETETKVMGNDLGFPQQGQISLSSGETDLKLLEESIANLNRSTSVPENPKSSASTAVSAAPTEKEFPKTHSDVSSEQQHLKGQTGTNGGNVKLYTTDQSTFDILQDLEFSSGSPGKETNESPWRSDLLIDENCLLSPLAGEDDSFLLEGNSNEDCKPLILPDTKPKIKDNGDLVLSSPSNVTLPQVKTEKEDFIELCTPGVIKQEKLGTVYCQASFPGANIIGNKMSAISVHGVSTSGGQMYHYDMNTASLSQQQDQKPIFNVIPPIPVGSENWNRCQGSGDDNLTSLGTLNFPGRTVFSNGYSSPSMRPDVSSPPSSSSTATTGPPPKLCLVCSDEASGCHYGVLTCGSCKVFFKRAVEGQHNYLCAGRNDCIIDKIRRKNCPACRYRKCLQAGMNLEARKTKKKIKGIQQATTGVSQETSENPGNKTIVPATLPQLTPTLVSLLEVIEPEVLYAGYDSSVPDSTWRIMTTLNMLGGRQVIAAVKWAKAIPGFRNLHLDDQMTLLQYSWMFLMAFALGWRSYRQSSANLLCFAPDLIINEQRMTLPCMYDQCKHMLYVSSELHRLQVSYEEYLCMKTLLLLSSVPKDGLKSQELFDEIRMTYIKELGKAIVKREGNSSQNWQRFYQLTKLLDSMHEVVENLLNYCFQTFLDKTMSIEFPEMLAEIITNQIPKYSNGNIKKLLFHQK
Experimental: (§1) 411. Human prostate cancer DU145 and PC-3 cells were maintained in […] (DMEM) containing penicillin (25 U/ml), streptomycin (25 μg/ml), and 5% fetal calf serum (FCS). Human LNCaP cells were maintained in RPMI containing penicillin (25 U/ml), streptomycin (25 μg/ml), and 10% FCS. Transfections were performed using the calcium phosphate precipitation method, as previously described (Dynlacht et al. (1991) Cell 66, 563-576). Briefly, 4×10^5 cells were plated on 60-mm dishes 24 hours before transfection, and the medium was changed to DMEM with 5% charcoal-dextran stripped FCS (CS-FBS) one hour before transfection. Transfection medium contained a constant amount of reporter plasmid and indicated amounts of pSG5-receptor, ARA70, or pCMX-GAL fusion construct using pSG5 as a carrier to provide equal amounts of transfected DNA. Twenty-four hours after transfection, the medium was changed again, and the cells were treated with DHT or other treatments. After another 24 hours, the cells were harvested for chloramphenicol transferase (CAT) or luciferase assays. At least three independent experiments were carried out in each case. Superfect (Qiagen) was used for transfection in LNCaP cells. The transfection conditions followed the manufacturer's protocol. […]

[2] = target: T2, PR (Homo sapiens, UniProt P06401); experiment: PR transactivation with ARA70 in DU145 cells (Example 3); format: cell-based
T2 construct: expressed in transfected cells; host or cells: DU145, PC-3
T2 sequence (P06401 1-933): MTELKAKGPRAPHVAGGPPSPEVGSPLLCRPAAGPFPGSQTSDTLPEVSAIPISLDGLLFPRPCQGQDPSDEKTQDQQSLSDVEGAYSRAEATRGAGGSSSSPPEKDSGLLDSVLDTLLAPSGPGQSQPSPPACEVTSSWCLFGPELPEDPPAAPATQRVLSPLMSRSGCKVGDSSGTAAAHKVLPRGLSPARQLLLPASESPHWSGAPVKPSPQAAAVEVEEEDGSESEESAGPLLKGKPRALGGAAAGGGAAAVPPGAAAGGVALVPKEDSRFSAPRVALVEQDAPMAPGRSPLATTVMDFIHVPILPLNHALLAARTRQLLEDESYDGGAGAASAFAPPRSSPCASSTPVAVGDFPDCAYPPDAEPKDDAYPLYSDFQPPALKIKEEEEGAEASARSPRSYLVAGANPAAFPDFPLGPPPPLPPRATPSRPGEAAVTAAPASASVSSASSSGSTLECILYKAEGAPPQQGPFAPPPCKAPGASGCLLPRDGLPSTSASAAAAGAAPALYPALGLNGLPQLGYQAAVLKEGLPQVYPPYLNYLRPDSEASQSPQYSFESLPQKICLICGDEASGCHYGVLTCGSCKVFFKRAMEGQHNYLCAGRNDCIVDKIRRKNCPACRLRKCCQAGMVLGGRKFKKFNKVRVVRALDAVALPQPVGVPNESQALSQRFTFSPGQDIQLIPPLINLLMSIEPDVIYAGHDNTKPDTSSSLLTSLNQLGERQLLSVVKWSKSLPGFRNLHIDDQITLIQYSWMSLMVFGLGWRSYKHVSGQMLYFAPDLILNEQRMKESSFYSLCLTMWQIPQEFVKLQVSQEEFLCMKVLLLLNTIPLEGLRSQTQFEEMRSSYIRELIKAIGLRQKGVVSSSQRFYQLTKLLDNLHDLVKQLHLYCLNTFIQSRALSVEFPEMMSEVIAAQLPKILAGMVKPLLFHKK
Experimental: as §1

For “ARA70: ligand-enhanced AR coregulator, full length ARA70”, the “enhancement of GR transactivation” value [1] was 2-3 fold and the “enhancement of PR transactivation” value [2] was 2-3 fold.
